Results on two substances are retold here after patent publication US20140031259A1.

Assay [1] concerns the target AKT1 D323H kinase domain fused to the Gal4 DNA binding domain (UniProt P04386). In words: cell-based or functional assay.
Assay [2] deals with AKT1 kinase domain (WT) fused to the Gal4 DNA binding domain (UniProt P04386). In words: cell-based or functional assay.

Regarding “AKT1 PH domain (WT) fused to the VP16 activation domain (from UniProt P31749 5-108)”, the luciferase reporter interaction signal in mammalian 2-hybrid assay, compared to WT-PH/WT-KD or E17K-PH/WT-KD in assay [1] turned out to be 50 % reduction. Substance “AKT1 L52R PH domain fused to the VP16 activation domain (from UniProt P31749 5-108)” yielded a luciferase reporter interaction signal in mammalian 2-hybrid assay, compared to WT-PH/WT-KD or E17K-PH/WT-KD in assay [2] of 50 % reduction.
